The values below come from PMC7488360 (Acta Pharmaceutica Sinica. B, 2020).

One data set concerns the target HuR (human antigen R) (Homo sapiens, UniProt Q15717). As to the kind of experiment: SPR. In kind it is binding.
Another data set has as its target HuR full-length (UniProt Q15717 1-326). As to the kind of experiment: EMSA.
A further data set has as its target HuR RRM12 (UniProt Q15717 18-186). As to the kind of experiment: EMSA. (In general: A gel shift assay detects complexes by their altered migration in electrophoresis.)

Sequence of HuR full-length (Q15717 whole entry): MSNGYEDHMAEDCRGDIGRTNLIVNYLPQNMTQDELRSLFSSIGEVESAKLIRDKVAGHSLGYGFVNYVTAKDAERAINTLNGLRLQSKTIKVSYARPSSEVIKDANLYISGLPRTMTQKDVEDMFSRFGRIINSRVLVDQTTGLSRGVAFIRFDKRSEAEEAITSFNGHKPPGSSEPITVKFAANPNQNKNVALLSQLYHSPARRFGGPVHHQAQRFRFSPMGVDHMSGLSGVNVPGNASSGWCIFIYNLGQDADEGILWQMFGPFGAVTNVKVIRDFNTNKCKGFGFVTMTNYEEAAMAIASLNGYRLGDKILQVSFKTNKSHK
Sequence of HuR (human antigen R) (Q15717 18-186): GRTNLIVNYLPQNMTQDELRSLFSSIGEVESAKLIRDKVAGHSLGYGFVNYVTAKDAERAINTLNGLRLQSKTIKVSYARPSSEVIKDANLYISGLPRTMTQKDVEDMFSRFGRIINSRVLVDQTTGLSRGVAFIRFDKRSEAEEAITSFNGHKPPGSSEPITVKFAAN
Sequence of HuR RRM12 (Q15717 18-186): as above

As a reminder, the Kd is a measure of binding affinity in units of concentration. At HuR (human antigen R), `CC1=NN(c2ccc(C)c(C)c2)C(=O)/C1=N\Nc1cccc(-c2cccc(C(=O)O)c2)c1O` [eltrombopag] displayed a Kd of 2500 nM.
For AAUUCUACAUACUAAAUCUCUCUCCUUUUUUAAUUUUAAUAUUUG (ssRNA) [AREVegf-a], the binding result with HuR full-length and with HuR RRM12 was “binds” each time.
